Experimental data reported in US20260176336A1 (MESTAG THERAPEUTICS, published 2026).

B1: Clone 2.2 (antibody, V domains shown)
VH: EVQLVESGGGLVKPGGSLRLSCAASRFTFSSYSMNWVRQAPGKGLEWVSSISPSSSYIYYADSVKGRFTISRDNAKNSLYLQMNSLRAEDTAVYYCARDHYNWNFDALDIWGQGTMVTVSS
VL: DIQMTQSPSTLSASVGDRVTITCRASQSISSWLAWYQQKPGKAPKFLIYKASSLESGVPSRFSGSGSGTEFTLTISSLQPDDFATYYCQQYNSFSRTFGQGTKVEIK
notes: anti-LTBR mAb (bivalent)
B2: Clone 2.7 (antibody, V domains shown)
VH: EVQLVESGGGLVQPGGSLRLSCAASGFIFDDYDMHWVRQAPGKGLEWVSGINWNSNRVDYADSVKGRFTISRDNARNSLYLQMNSLRPEDTAFYYCVKDKTSSWYVFDSWGQGTPVTVSS
VL: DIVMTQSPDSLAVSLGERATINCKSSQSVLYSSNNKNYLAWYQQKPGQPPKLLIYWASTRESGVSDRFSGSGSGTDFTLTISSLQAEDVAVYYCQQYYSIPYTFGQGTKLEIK
notes: anti-LTBR mAb (bivalent)
B3: Clone 2.8 (antibody, V domains shown)
VH: QVQLQESGPGLVKPSGTLSLTCAVSGGSISSSNWWSWVRQPPGKGLEWIGDIYHDGTTYYNPSLKSRVTVSVDKSKNQFSLKLSSVTAADTAVYYCARSPSGTTDYFDYWGQGTLVTVSS
VL: DIQMTQSPSSLSASVGDRVNITCRASQSISSYLNWYQQKPGKAPKLLIYAPSSLQSGVPSRFSGGGSGTDFTLTISSLQPEDFATYFCQQSYSTPPTFGPGTKVDIK
notes: anti-LTBR mAb (bivalent)
B4: Clone 2.1 (antibody, V domains shown)
VH: EVQLVESGGGLVKPGGSLRLSCAASGFTFSSYCMNWVRQAPGKGLEWVSSISTGNTYIYYSDSVKGRFTISRDNAKNSLYLQMNSLRAEDTAVYYCARARYNWNYDAFDIWGQGTMVTVSS
VL: DIQMTQSPSSLSASIGDRVTITCQASQDISNFLSWYQQKPGKAPNLLIFDASNLETGVPSRFSESGSGTDFSFTITSLQPEDIATYYCQQYYNVPLTFGGGTKVEIK
notes: anti-LTBR mAb (bivalent)
B5: Clone 2.5 (antibody, V domains shown)
VH: EVQLVESGGGLVQPGRSLRLSCAASGFTFDDYDIHWVRQAPGKGLEWVSGINWNSITIGYADSVKGRFTISRDNAKNSLYLQMNSLRAEDTALYYCAKDRGSGWRIFDYWGQGTLVTVSS
VL: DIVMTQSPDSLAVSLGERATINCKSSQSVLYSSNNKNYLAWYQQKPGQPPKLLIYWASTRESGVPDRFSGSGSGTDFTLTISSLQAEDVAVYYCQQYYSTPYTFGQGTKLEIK
notes: anti-LTBR mAb (bivalent)
B6: Clone 2.4 (antibody, V domains shown)
VH: QVQLVESGGGVVQPGRSLRLSCAASGFTFSSYGIHWVRQAPGKGLEWVAVIWYDGSNKYYADSVKGRFTISRDNSKNTLYLQMNSLRAEDTAVYYCARDGGTGNYYYMDVWGKGTTVTVSS
VL: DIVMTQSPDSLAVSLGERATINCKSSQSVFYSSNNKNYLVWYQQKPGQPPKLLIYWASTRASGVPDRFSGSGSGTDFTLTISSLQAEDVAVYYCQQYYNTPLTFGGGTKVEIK
notes: anti-LTBR mAb (bivalent)
B7: Clone 4.15 (antibody, V domains shown)
VH: QVQLKESGPGLVQPSQTLSLTCTVSGFSLTTYSVHWVRQHSGKSLEWMGRMWTDGDTSYNSAFTSRLSISRDTSKSQVFLKMNSLQTEDTGTYYCARGYWYFDFWGPGTMVTVSS
VL: DVQMTQSPSYLAASPGESVSIRCKASKSISNNLAWYQEKPGKANKLLIHSGSTLQSGTPSRFSGSGSGTDFTLTIRSLEFEDFAVYYCQQYNEYPYTFGAGTKLELK
B8: Clone 4.10 (bispecific antibody, human IgG1, kappa, L234A L235A)
heavy 1: not shown
heavy 2: EVQLVESGGGLVKPGGSLRLSCVASGFTFSLAWMNWVRQAPGKGLEWVGHIKSRADGGSTDYAAPVKGRFTISRDDSKNTLYLHMNSLKTEDTAVYFCSRFYWNYVLDYWGQGTLVTVSSASTKGPSVFPLAPSSKSTSGGTAALGCLVKDYFPEPVTVSWNSGALTSGVHTFPAVLQSSGLYSLSSVVTVPSSSLGTQTYICNVNHKPSNTKVDKKVEPKSCDKTHTCPPCPAPEAAGGPSVFLFPPKPKDTLMISRTPEVTCVVVDVSHEDPEVKFNWYVDGVEVHNAKTKPREEQYNSTYRVVSVLTVLHQDWLNGKEYKCKVSNKALPAPIEKTISKAKGQPREPQVCTLPPSRDELTKNQVSLSCAVKGFYPSDIAVEWESNGQPENNYKTTPPVLDSDGSFFLVSKLTVDKSRWQQGNVFSCSVMHEALHNHYTQKSLSLSPGK
light: DIQMTQSPSSLSASVGDRVTITCRASQSINSYFNWYQQKPGKAPKLLIYAASGLQSGVPSRFSGSGSGTDFTLTISSLQPEDFATYYCQQSYSPPYTFGQGTNLEIKRTVAAPSVFIFPPSDEQLKSGTASVVCLLNNFYPREAKVQWKVDNALQSGNSQESVTEQDSKDSTYSLSSTLTLSKADYEKHKVYACEVTHQGLSSPVTKSFNRGEC
B9: Clone 2.6 (antibody, V domains shown)
VH: QVQLVQSGTEMKKPGASVKVSCKASGYTFSSYDISWVRQAPGQGLEWMGWFSAYNGNSNYAQKFQGRVTMTTDTSTNTAYMELRSLRSDDTAVYYCAREGYYGNSGFFDYWGQGTLVTVSS
VL: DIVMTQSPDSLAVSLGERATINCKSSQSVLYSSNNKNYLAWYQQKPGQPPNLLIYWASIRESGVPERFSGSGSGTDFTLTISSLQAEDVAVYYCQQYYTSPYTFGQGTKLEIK
notes: anti-LTBR mAb (bivalent)
B10: Clone 2.3 (antibody, V domains shown)
VH: EVQLVESGGGLVQPGGSLRLSCAASGFTFSSYAMSWVRQAPGKGLEWVSGISGSGGRTNYADSVKGRFTISRDNSKNTLYLQMNSLRAEDTAVYYCAKSDNWHYLDAFDIWGQGTMVTVSS
VL: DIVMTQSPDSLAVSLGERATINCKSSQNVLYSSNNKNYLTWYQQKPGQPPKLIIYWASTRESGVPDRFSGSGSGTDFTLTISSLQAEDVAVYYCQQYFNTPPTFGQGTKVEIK
notes: anti-LTBR mAb (bivalent)

Tests used:
[1] = target: T1, human LTBR endogenously expressed on cells (HepG2, A549, A375, HCC1187, RPMI-7951, primary human breast CAFs) (human, UniProt P36941 31-435); assay: flow cytometry, A375 cells
T1 construct: also called lymphotoxin beta receptor; TNFRSF3
Experimental: For binding to LTBR-positive cells, the A375 tumor cell line was used. At the same time, binding to LTBR-negative HEK293 cells was tested to confirm specificity. In short, the cells were resuspended in the FACS binding buffer, and live/dead efluro450 viability dye was added at a 1:1000 dilution to the cell suspension, followed by incubation at room temperature in the dark for 30 minutes. The cells were then diluted to 2 e5/ml, and 100 ul was added to wells of a 96-well U-bottom plate as required. […] The cells were pelleted by centrifugation, and the supernatant was discarded, followed by the addition of a series of dilutions of anti-LTBR antibodies and incubation for 45 minutes at 4 C in the dark. Cells were washed two times with PBS with 3% (w/v) BSA before adding 60 ul of fluorescently labelled secondary antibody (goat anti-human IgG) diluted to 1:200 in PBS. Incubation continued at 4 C for at least 30 minutes, followed by two washes in PBS pH 7.4. Cells were either fixed with 2% PFA (30 minutes at 4 C) followed by washout and storage in 100 ul of PBS or immediately analysed on a Flow Cytometer. The data were analysed using FloJo V10 and GraphPad Prism. No binding to the HEK cell line was detected for any tested clones, confirming the specific interaction between anti-LTBR antibodies and LTBR receptor. The results are summarised in.

[2] = target: Human LTBR (Acro), recombinant protein (human, UniProt P36941 31-227, limits assumed); assay: SPR (Carterra LSA), antibody captured by anti-human Fc, LTBR as analyte
Experimental: (§1) The binding of anti-LTBR antibodies to human and cynomolgus LTBR was investigated by Surface Plasmon Resonance (SPR) on Carterra LSA. An EC30M chip was used to capture the test antibodies. Activation with EDC and sNHS occurred in MES pH 5.5 to prepare the chip for amine coupling. Goat anti-human IgG Fc antibody was then captured to the chip via incubation for 10 minutes. Excess conjugation sites were quenched with 1M Ethanolamine pH 8. To measure monovalent binding kinetics, antibodies were printed/spotted onto the chip and allowed to bind to the goat antibody, followed by subsequent washing. After the preparation, the printed chip was exposed to repeated rounds of association and dissociation with increasing analyte concentrations. In this work, recombinant proteins (Human LTBR (Acro) or cyno LTBR His (R&D)) were serially diluted across a range starting at 1500 nM with 3-fold dilutions and 10 points. The curves were fitted to global fit in a 1:1 binding model to obtain KD values. The binding affinity to both species is reported.

[3] = target: T2, cyno LTBR His (R&D), recombinant protein (cynomolgus (Macaca fascicularis), UniProt P36941 31-227 (human entry), limits assumed); assay: as above
T2 construct: bought protein used as analyte on Carterra LSA
Experimental: as §1

[4] = target: T1, human LTBR endogenously expressed on …; assay: cell-based or functional assay
[5] = target: mouse LTBR on cells (4T1 tumor cell line; primary mouse lung fibroblasts) (mouse, UniProt P50284 31-415); assay: cell-based or functional assay
[6] = target: T1, human LTBR endogenously expressed on …; assay: cell-based or functional assay; remark: listed apart in the source
[7] = target: T1, human LTBR endogenously expressed on …; assay: cell-based or functional assay; remark: listed apart in the source

T2 sequence (P36941 other isoform, or with tags, fused parts or gaps limits assumed): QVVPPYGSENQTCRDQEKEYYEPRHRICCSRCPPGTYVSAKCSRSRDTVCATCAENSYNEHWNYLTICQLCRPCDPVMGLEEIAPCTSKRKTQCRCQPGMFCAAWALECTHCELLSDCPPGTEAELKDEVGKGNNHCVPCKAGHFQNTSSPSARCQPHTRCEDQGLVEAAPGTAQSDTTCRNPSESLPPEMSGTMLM
T1 sequence (P36941 31-435): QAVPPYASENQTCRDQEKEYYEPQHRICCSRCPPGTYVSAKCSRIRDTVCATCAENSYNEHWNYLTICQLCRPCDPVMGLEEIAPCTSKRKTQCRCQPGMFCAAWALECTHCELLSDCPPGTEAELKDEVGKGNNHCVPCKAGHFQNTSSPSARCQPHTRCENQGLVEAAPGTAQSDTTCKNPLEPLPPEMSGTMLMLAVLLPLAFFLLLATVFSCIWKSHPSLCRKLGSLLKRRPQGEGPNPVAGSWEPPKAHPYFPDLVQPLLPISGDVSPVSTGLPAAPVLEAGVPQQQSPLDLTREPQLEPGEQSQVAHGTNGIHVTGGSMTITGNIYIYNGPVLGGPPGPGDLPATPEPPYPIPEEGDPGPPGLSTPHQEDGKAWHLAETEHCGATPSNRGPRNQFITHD
Sequence of Human LTBR (Acro), recombinant protein (P36941 31-227 limits assumed): as the sequence (P36941 other isoform, or with tags, fused parts or gaps limits assumed) above, with V2A, G7A, R24Q, S45I, D163N, R181K, S184L, S186P counted along it
Sequence of mouse LTBR on cells (4T1 tumor cell line; primary mouse lung fibroblasts) (P50284 31-415): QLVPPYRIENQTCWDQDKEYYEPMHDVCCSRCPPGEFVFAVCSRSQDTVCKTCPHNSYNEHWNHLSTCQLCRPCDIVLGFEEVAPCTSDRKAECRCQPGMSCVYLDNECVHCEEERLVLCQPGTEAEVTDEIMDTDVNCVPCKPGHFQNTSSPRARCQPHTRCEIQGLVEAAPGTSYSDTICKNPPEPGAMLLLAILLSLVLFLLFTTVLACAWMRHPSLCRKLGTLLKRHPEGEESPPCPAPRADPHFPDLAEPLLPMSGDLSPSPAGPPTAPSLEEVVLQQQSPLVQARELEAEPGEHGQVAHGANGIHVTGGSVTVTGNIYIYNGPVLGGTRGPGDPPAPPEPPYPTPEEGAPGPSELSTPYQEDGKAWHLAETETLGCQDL

Binder	EC50 [1]	Kd [2]	Kd [3]	HepG2 reporter assay EC50 (w/o cross-linking antibody) [4]	HepG2 reporter assay EC50 (with cross-linking antibody) [4]	4T1 monoculture CCL5 read-out EC50 [5]	4T1 monoculture CCL5 read-out EC50, 4.15 + cross-linking antibody [5]	HepG2 Reporter assay, HepG2:FAP-CHO-K1 Co-culture EC50 [6]	CCL19 upregulation, HCC1187:CAF Co-culture EC50 [7]
B1	720 pM	560 pM	710 pM	17000 pM	190 pM				
B2	9500 pM	4300 pM	1300 pM	170 pM	180 pM				
B3		280 pM	2600 pM						
B4	1000 pM	250 pM	260 pM		160 pM				
B5	5400 pM	2100 pM	1600 pM	240 pM	140 pM				
B6		36000 pM	53000 pM		90 pM				
B7						840 pM	36 pM		
B8								36 pM	410 pM
B9	3500 pM	180 pM	24 pM	73 pM	100 pM				
B10	660 pM	580 pM	390 pM	130 pM	43 pM				
